Target: the molecule itself
Test: SEC-MALS; Superdex 75 Increase 10/300 GL; HilD (100 μM) incubated with 1% (v/v) DMSO or C26 (100 µM) for 20 min at room temperature; SEC buffer (50 mM NaH2PO4, pH 7.0, 200 mM NaCl); 0.5 ml/min

B1: HilD (natural protein)
chain: MENVTFVSNSHQRPAADNLQKLKSLLTNTRQQIKSQTQQVTIKNLYVSSFTLVCFRSGKLTISNNHDTIYCDEPGMLVLKKEQVVNVTLEEVNGHMDFDILEIPTQRLGALYALIPNEQQTKMAVPTEKAQKIFYTPDFPARREVFEHLKTAFSCTKDTSKGCSNCNNKSCIENEELIPYFLLFLLTAFLRLPESYEIILSSAQITLKERVYNIISSSPSRQWKLTDVADHIFMSTSTLKRKLAEEGTSFSDIYLSARMNQAAKLLRIGNHNVNAVALKCGYDSTSYFIQCFKKYFKTTPSTFIKMANH
notes: HilD, transcriptional regulator of Salmonella enterica serovar Typhimurium; the hilD gene was cloned into pET-24a(+) with an N-terminal His6-SUMO fusion; Dimer by SEC-MALS; 9 (printed only as an image); also called HilDWT; recombinant HilD; source: E. coli C41(DE3), purified (Ni-NTA, SUMO protease cleavage, second Ni-NTA, SEC Superdex 75); not shown: His6, N-terminal, cleaved; SUMO, N-terminal, …
Question: With B1 as the protein, how does the “stoichiometry N” value read?
Answer: 2

Reference: publication doi:10.1101/2024.04.29.591313, “Discovery of a synthetic small molecule targeting the central regulator of Salmonella pathogenicity” (bioRxiv, 2024)
